What was measured:
[1] = target: SARS-CoV-2 spike protein on live virus, strain USA-WA1/2020 (SARS-CoV-2, WA01/2020 strain, UniProt P0DTC2 14-1273); experiment: cell-based or functional assay
[2] = target: T1, Receptor-binding domain (RBD) of the SARS-CoV-2 spike protein, WA01/2020 strain (SARS-CoV-2, WA01/2020 strain, UniProt P0DTC2 319-541); experiment: dose-response ELISA on coated antigen
[3] = target: T1, Receptor-binding domain (RBD) of the …; experiment: ELISA, antibody blocks RBD binding to human ACE2
[4] = target: T1, Receptor-binding domain (RBD) of the …; experiment: SPR (Biacore 8K), antigen immobilized, antibody injected
[5] = target: SARS-CoV-2 spike protein, B1.1.7 (alpha variant), borne on lentiviral pseudovirus (SARS-CoV-2, B1.1.7); experiment: cell-based or functional assay

Row | Binder | Live Neut, WA1/2020 IC50 (pM) [1] | EC50 [2] | IC50 [3] | Kd [4] | Pseudo Neut, B1.1.7 IC50 (pM) [5]
1 | antibody 767 (antibody, V domains shown) VH: QVQVVQSGAEVKKPGASVKVSCTASGHTFTGYAIHWVRQAPGQRLEWMGLINAGGIYRTYSQRFQGRVTITRDTSASTAYMELTGLTSEDTAVYYCARANYGSGSFSDHWGQGTLVTVSS VL: not shown | 1730 pM | 3.47 nM | 20.9 nM | 24.3 nM | –
2 | antibody 935 (antibody, V domains shown) VH: EVQLVESGGGLVQPGGSLRLSCAASGFTVSSNYMSWVRQAPGKGLEWVSVIYSGGSTFYADSVKGRFTISRDNSRNTLYLQMNSLRAEDTAVYYCARDWGEFFFDFWGQGALVTVSS VL: EIVLTQSPGTLSLSPGERATLSCRASQTISSSYLAWYQQKPGQAPRLLISGASSRATGIPDRFSGSGSGTDFTLTISRLEPEDFAVYYCQQYGSSPRTFGQGTNVEIK | 64 pM | 0.024 nM | 0.83 nM | 0.406 nM | 1170 pM
3 | antibody 937 (antibody, V domains shown) VH: EVQLVESGGGLVQPGRSLRLSCAASGFTFDDYAMHWVRQAPGKGLEWVSGISWNSGSIGYADSVKGRFTISRDNAKNSLYLQMNSLKPEDTALYYCAKSTTSCYNGSQCPTKRPKPLESWGQGTLVIVSA VL: DIQMTQSPSTLSAFVGDRVTITCRASQSINNWLAWYQQKPGEVPKLLIYKASSLENGVPSRFSGSGFGTEFTLTISSLQPDDFAIYYCQQYYSHSHTFGQGTKLEIK | 140 pM | – | – | – | –
4 | antibody 941 (antibody, V domains shown) VH: QVQLVQSGAEVKKPGSSVKVSCKASGGTFSNSAINWVRQAPGQGLEWMGGIIPLFGAADYAQKFQARVTITADKSTTTSYMELSSLRSEDTAVYYCARDTLEHDDVWGNFRLSLPLSFWGQGTLVTVSS VL: not shown | 24 pM | 0.024 nM | 0.96 nM | 0.062 nM | 533 pM
5 | antibody 1213 (antibody, V domains shown) VH: QMQLVQSGAEVKKTGSSVKVSCEASENTFTNRYLHWVRQAPGQALEWMGWITPFQGNTHYAQKFQDRVTITRDRSMNTVYMELSSLRSEDTAIYYCASGGQYGPGSYYFEFWGQGTLVTVSS VL: EIVMTQSPATLSVSPGERATLSCRASQSIRNNLAWYRQKPGQAPRLLIYGASTRAAGVPARFSGSGSGTEFTLTISSLQSEDFAVYYCQQYINWPPLTFGGGTKVEIK | 2590 pM | 0.051 nM | 7.74 nM | 1.72 nM | –
6 | antibody 1227 (antibody, V domains shown) VH: QMQLVQSGAEVKKTGSSVKVSCEASGYTFTNRYLHWVRQAPGQALEWMGWITPFQGNTNYAQKFQDRVTITRDMSMNTVYMELSSLRSEDTAKYYCASGGQYGAGSYYLEDWGQGTLVTVSS VL: EIVMTQSPATLSVSPGERATLSCRASQSVRSNLAWYRQKPGQAPRLLIYGASTRATGVPARFSGSGSGTEFTLTISSLQSEDFAVYYCQQYINWPPLTFGGGTRVEIK | 1490 pM | 0.107 nM | 14.5 nM | 2.74 nM | –
7 | antibody 1231 (antibody, V domains shown) VH: QVQLVQSGSELKKPGASVKVSCTGYGYTFTSYAMNWVRQAPGQGLEWMGWINTNTGHPAYAQGFTGRFVFSLDSSVSTAYLQISSLKAEDTAVYYCATTIRAGGYFDFWGQGTLVTVSS VL: DIQLTQSPSFLSASVGDRVTITCRASQGISSYLAWFQQKPGKAPKLLIYVVSILQSGVPSRFSGSGSGTEFTLTISSLQPEDFATYYCQQLNSYPYTFGQGTKLEIK | 9510 pM | 0.018 nM | 3.69 nM | 2.54 nM | –
8 | antibody 1671 (antibody, V domains shown) VH: EVQLVESGGGLVKPGGSLRLSCAASGFTFSTYNMNWVRQAPGKGLEWVSSISSNSNYIYYADSMKGRFTISRDNAKNSLYLQMNSLRAEDTAVYYCARDMDPLPYFDWLLYAFDVWGQGTMVTVSS VL: EIVLTQSPGTLSLSPGERATLSCRASQSVSGSYLAWYQQKPGQAPRLLIYGASSRATGIPDRFSGSGSGTDFTLTISRLEPEDFAVYYCQQYGSPIFTFGPGTKVDIK | 9 pM | – | – | – | –
9 | antibody 1679 (antibody, V domains shown) VH: QITLKESGPTLVKPTQTLTLTCTFSGFSLSTVGVGVAWIRQPPGKALEWLALIYWDDDKRYSPSLKSRLTITKDTSKNHVVLTMTNMDPVDTATYYCAHHIIAALVDVWGKGTTVTVSS VL: QSALTQPASVSGSPGQSITISCTGTSSDVGGNNYVSWYQHHPGEAPKLMIYEVSNRPSGVSNRFSGSKSGNTASLTISGLQAEDEADYYCSSYTTSSTLVVFGGGSKLTVL | 19 pM | 0.003 nM | 0.07 nM | 1.01 nM | –
10 | antibody 2025 (antibody, V domains shown) VH: QVQLVQSGAEVKKPGASVKVSCKVSGYTLIELSMHWVRQAPGKGLEWMGGFDPEDVETIYAQKFQGRVTMTEDTSTDTAYMELSSLRSEDTAVYYCATAYAVQWRGMIGYWGQGTLVTVSS VL: QSALTQPASVSGSPGQSITISCTGTSSDVGSYNLVSWYQQHPGKAPKLMIYEVSKRPSGVSNRFSGSKSGNTASLTISGLQAEDEADYYCSSYAGSSTFSYVFGTGTKVTVL | 118 pM | 0.113 nM | – | 7.13 nM | –
11 | antibody 2080 (antibody, V domains shown) VH: QVQLQQWGAGLLKPSETLSLTCAVYGGSFSGYYWSWIRQPPGKGLEWIGRINDIGSTDYNPSLKSRVTISVDTSKNQFSLKLTSVTAADTAVYYCAREPFDSEGTFDYWGQGTLVIVSS VL: DIQMTQPPSTLSASVGDRVTITCRASQSISRWLAWYRQKPGKAPKLLIYDASSLQSGVPSRFSGSGSGTEFTLTISSLQPDDLATYYCQQYNTYPYTFGQGTKLEIK | 169 pM | – | – | – | –
12 | antibody 2432 (antibody, V domains shown) VH: QVQLVQSGAEVKKPGSSVKVSCKASGDTFSSYAISWVRQAPGQGLEWLGGIIPIFGSADYAQKFQGRVTITADEFTSTAYMELSSLRSEDTAVYFCAREKYGDYGEGPLYNFDYWGQGTLVTVSS VL: not shown | 26 pM | – | – | – | –
13 | antibody 2598 (antibody, V domains shown) VH: QVQLQESGPGLVKPSGTLSLTCVVSGGSISSSNWWSWVRQPPGKGLEWIGETFHSGSFNYNPSLKSRVTISVDKSKNQFSLKLSSVTAADTAIYYCATTRVGYEGHFYYYGMDVWGQGTTVTVSS VL: DIQMTQSPSSVSASVGDRVTITCRASQGISSWLAWYQQKPGKAPKLLIYAASSLQSGVPSRFSGSGSGTDFTLTISSLQPEDFATYYCQQANRFPWTFGQGTKVEIK | 586 pM | – | – | – | –
14 | antibody 2606 (antibody, V domains shown) VH: EVQLVESGGGLVKPGGSLRLSCAASGFTFSSYSMNWVRQAPGKGLEWVSSITSSSGYMYYADSVKGRFTISRDNAKNSLYLQLNSLRAEDTAVYYCAKDSAFDLWEVRSYYYVMDVWGQGTTVTVSS VL: not shown | 474 pM | – | – | – | –
15 | antibody 2646 (antibody, V domains shown) VH: QVQLVQSGAEVKKPGASVKVSCKVSGYTLTELSIHWVRQAPGKGLEWMGGFDPEDAETIYAQKFQGRVTMTEDTSTDTAYMELSSLRSEDTAVYYCATATAVAGTVFNYQYHYGLDFWGQGTTVTVSS VL: not shown | 19 pM | – | – | – | –
16 | antibody 1439 (antibody, V domains shown) VH: QVQLQESGPGLVKPSETLSLTCTVSGDSISTYYWSWIRQPPGKGLEWIGYIHYSGSTNYNPSLKSRVAVSVDTSKNQFSLKLSSVTAADTAVYYCARGGGVFGVVINFDYWGQGILVTVSS VL: NFMLTQPYSVSESPGKTVTISCTRSSGSIASNYVQWYQQRPGSAPTTVIYEDNQRPSGVPDRFSGSIDSSSNSASLTISGLKTEDEADYYCQSRDSSNPVVFGGGTKLTVL | – | 0.0099 nM | 0.117 nM | 0.0176 nM | –

From patent publication US20230382979A1 (ADAPTIVE BIOTECHNOLOGIES, published 2023)
